Patent US20170212130A1 (ROCKEFELLER UNIVERSITY, published 2017)
Like-named read-outs stand apart in the source and are kept apart here.

What was measured:
mCherry [1] = biological target: T1, mCherry (Discosoma); assay: SPR, mCherry immobilized
T1 construct: Immunogen is mCherry-His6; SPR says recombinant mCherry; also called recombinant mCherry-His6; Discosoma mCherry

mCherry [2] = biological target: T1, mCherry; assay: SPR, mCherry immobilized, Langmuir fit; unit inferred
mCherry [3] = biological target: T1, mCherry; assay: label under gel lane; legend: in vitro Kd for mCherry by SPR
GFP-His6 (eGFP) [4] = biological target: T2, GFP-His6 (eGFP) (Aequorea victoria, UniProt P42212 2-238 = GFP); assay: bead binding: nanobody-Dynabeads + fluorescent protein, eluate on SDS-PAGE
T2 construct: SPR and bead assays speak only of recombinant GFP or eGFP; also called recombinant GFP; A. victoria (Av) GFP

DsRed [5] = biological target: T3, DsRed (Discosoma sp., UniProt Q9U6Y8 1-225); assay: as above
T3 construct: Recombinant fluorescent protein; construct not described; also called standard DsRed; DsRed from Discosoma (Ds)

GFP-His6 (eGFP) [6] = biological target: T2, GFP-His6 (eGFP); assay: SPR, GFP immobilized
GFP-His6 (eGFP) [7] = biological target: T2, GFP-His6 (eGFP); assay: SPR, GFP immobilized, Langmuir fit; unit inferred
GFP-His6 (eGFP) [8] = biological target: T2, GFP-His6 (eGFP); assay: label under gel lane; legend: in vitro Kd for GFP by SPR
GFP-His6 (eGFP) [9] = biological target: T2, GFP-His6 (eGFP); assay: as above; remark: listed apart in the source
DsRed [10] = biological target: T3, DsRed; assay: bead binding: nanobody-Dynabeads + fluorescent protein, eluate on SDS-PAGE; remark: listed apart in the source
GFPuv = biological target: T4, GFPuv (Aequorea victoria, UniProt P42212 1-229 = GFP, limits assumed); assay: NMR, 15N-1H HSQC of 15N-GFPuv with 1-1.2 molar excess of LaG
T4 construct: 15N-labeled for NMR; also called GFPuv variant; 15N-labeled GFPuv

GFP-His6 (eGFP) [11] = biological target: T2, GFP-His6 (eGFP); assay: SPR, GFP immobilized, Langmuir fit; no unit printed [continued]
GFP-His6 (eGFP) [12] = biological target: T2, GFP-His6 (eGFP); assay: method not named in the sentence (in vitro Kd by SPR per FIG. 3 legend)
GFP-His6 (eGFP) [13] = biological target: T5, GFP-His6 (eGFP) (Aequorea victoria, UniProt P42212 2-238 = GFP); assay: SPR, GFP immobilized
GFP-His6 (eGFP) [14] = biological target: T5, GFP-His6 (eGFP); assay: SPR, GFP immobilized; reference LaG-16 or LaG-2 alone
GFP-His6 (eGFP) [15] = biological target: T2, GFP-His6 (eGFP); assay: bead binding assay (footnote 1)
GFP-His6 (eGFP) [16] = biological target: T2, GFP-His6 (eGFP); assay: equilibrium bead binding: LaG-Dynabeads + 0.8-400 nM GFP, Coomassie band density fit

T3 sequence (Q9U6Y8 whole entry): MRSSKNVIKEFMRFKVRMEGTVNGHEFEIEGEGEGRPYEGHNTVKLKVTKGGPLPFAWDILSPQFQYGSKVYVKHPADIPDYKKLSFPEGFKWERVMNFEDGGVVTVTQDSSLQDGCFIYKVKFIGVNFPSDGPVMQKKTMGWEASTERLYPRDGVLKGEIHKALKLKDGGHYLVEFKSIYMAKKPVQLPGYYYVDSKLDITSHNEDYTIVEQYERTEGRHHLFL

Row | Binder | Kd (mCherry [1]) [nM] | Kd (mCherry [2]) [nM] | Kd (mCherry [3]) [nM] | binding result (GFP-His6 (eGFP) [4]) | binding result (DsRed [5]) | Kd (GFP-His6 (eGFP) [6]) [nM] | binding result (DsRed [10]) | other results
1 | LaM-6 (VHH) VHH: QVQLVESGGGLVQAGGSLRLSCVASGSAPSFFAMAWYRQSPGNERELVAALSSLGSTNYADSVKGRFTISMDNAKNTVYLQMNNVNAEDTAVYYCAAGDFHSCYARKSCDYWGQGTQVTVS | 0.26 | 0.26 | 0.26 | no binding | no binding | – | – | –
2 | LaG-9 (VHH) VHH: DVQLVESGGGLVQAGGSLRLSCAASGRTFSTSAMGWFRQAPGKEREFVARITWSAGYTAYSDSVKGRFTISRDKAKNTVYLQMNSLKPEDTAVYYCASRSAGYSSSLTRREDYAYWGQGTQVTVS | – | – | – | – | – | 3.5 | no binding | Kd (GFP-His6 (eGFP) [7]): 3.5 nM; Kd (GFP-His6 (eGFP) [8]): 3.5 nM; Kd (GFP-His6 (eGFP) [9]): 3.5 nM
3 | LaG-24 (VHH) VHH: DVQLVESGGGLVQPGGSLRLSCAASGEIASIIAIGWYRQAPGKQRESVALITRSGMITYGDSAQGRFTISRDDAKNTVYLHMDDLVPEDTAVYYCNAKKVSFGDYWGQGTQVTVS | – | – | – | – | – | 41 | no binding | binding result (GFPuv): no binding; Kd (GFP-His6 (eGFP) [8]): 35 nM; Kd (GFP-His6 (eGFP) [9]): 35 nM; Kd (GFP-His6 (eGFP) [11]): 41 nM
4 | LaG-41 (VHH) VHH: DVQLVESGGGLVQAGGSLRLSCAASGPTGAMAWFRQAPGKEREFVGGISGSETDTYYVDSVKGRFTVDRDNVKNTVYLQMNSLKPEDTAVYYCAARRRITLFTSRTDYDFWGRGTQVTV | – | – | – | – | – | – | no binding | Kd (GFP-His6 (eGFP) [12]): 0.9 nM
5 | LaM-8 (VHH) VHH: QVQLVESGGGLVQAGGSLRLSCAVSGRPFSEYNLGWFRQAPGKEREFVARIRSSGTTVYTDSVKGRFSASRDNAKNMGYLQLNSLEPEDTAVYYCAMSRVDTDSPAFYDYWGQGTQVTVST | 63 | 63 | 63 | no binding | no binding | – | – | –
6 | LaG16-LaG2 fusion with a flexible glycine-rich linker (G4S) (other) MAQVQLVESGGRLVQAGDSLRLSCAASGRTFSTSAMAWFRQAPGREREFVAAITWTVGNTILGDSVKGRFTISRDRAKNTVDLQMDNLEPEDTAVYYCSARSRGYVLSVLRSVDSYDYWGQGTQVTVSGGGGSMAQVQLVESGGGLVQAGGSLRLSCAASGRTFSNYAMGWFRQAPGKEREFVAAISWTGVSTYYADSVKGRFTISRDNDKNTVYVQMNSLIPEDTAIYYCAAVRARSFSDTYSRVNEYDYWGQGTQVTV | – | – | – | – | – | – | – | Kd (GFP-His6 (eGFP) [13]): 0.036 nM; fold lower Kd than either LaG alone (GFP-His6 (eGFP) [14]): ~20 fold
7 | LaG-2 (VHH, that range is inconsistent in itself; not shown: PreScission Protease cleavage site and C-terminal 6xHis tag) VHH: QVQLVESGGGLVQAGGSLRLSCAASGRTFSNYAMGWFRQAPGKEREFVAAISWTGVSTYYADSVKGRFTISRDNDKNTVYVQMNSLIPEDTAIYYCAAVRARSFSDTYSRVNEYDYWGQGTQVTV | – | – | – | – | – | 16 | no binding | Kd (GFP-His6 (eGFP) [15]): 19 nM; Kd (GFP-His6 (eGFP) [16]): 19 nM
8 | LaM-1 (VHH) VHH: QVQLVESGGGLVQAGDSLRLSCAASGRTFENYAMGWFRQAPGKEREFVGAVSWGGGRTYYADNVKGRFTISRDNAKKNTVYLQMNSLKPEDTAVYYCAAKSVLTIATMRVPDEYNYWGQGTQVTVS | 22 | 22 | 22 | no binding | no binding | – | – | –
